The values below come from patent US6734286 (CELLTECH R AND D, dated 2004).

The assay deals with T1, Recombinant human IL-5 (human, UniProt P05113 20-134).
T1 construct: also called human interleukin-5; hIL-5
T1 sequence (looked up): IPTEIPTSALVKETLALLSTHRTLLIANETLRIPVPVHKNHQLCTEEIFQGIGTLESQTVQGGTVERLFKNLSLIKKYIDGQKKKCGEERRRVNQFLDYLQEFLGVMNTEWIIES
In words: BIAcore; antibody captured by polyclonal anti-human Fc, recombinant human IL-5 as analyte. The method, then:
Affinities of the chimeric and CDR grafted anti-IL-5 antibodies were determined using Biospecific Interaction Analysis (BIA). Antibodies were produced in CHO cells by transfection of combinations of heavy and light chain genes and purified from culture supernatants on Protein A Sepharose. […] The amount of anti-IL-5 captured for each run was approximately 1600 RU. Recombinant human IL-5 was then passed over the Sensorchip at various concentrations (0.6 to 5 µg/ml) in the above buffer. The Sensorchip was cleaned after each run with 100 mM HCl and 100 mM orthophosphoric acid to remove bound IL-5 and antibody. The sensorgrams generated were analysed using the kinetics software available with the BIAcore machine.
On the technique in general: SPR reads the build-up and loss of mass on a sensor chip optically.

B1: CTIL-5-10 gH/gL6 antibody (antibody, V domains shown)
VH: EVQLVESGGGLVQPGGSLRLSCAVSGLSLTSNSVNWIRQAPGKGLEWVGLIWSNGDTDYNSAIKSRFTISRDTSKSTVYLQMNSLRAEDTAVYYCAREYYGYFDYWGQGTLVTVSS
VL: DIQMTQSPSSLSASVGDRVTITCLASEGISSYLAWYQQKPGKAPKLLIYGANSLQTGVPSRFSGSGSATDYTLTISSLQPEDFATYYCQQSYKFPNTFGQGTKVEVKR
notes: Human constant domains; also called CTIL-5-10 gH/qL6; CDR grafted 39D10
Consider B1, for which the binding result was “binds”.
